Assay [1] addresses β-lactoglobulin (bovine) (UniProt P02754). In words: ITC; LF (0.25 mM, syringe) injected into βLG (0.1 mM, cell); 10 mM MES pH 5.5, 2.5 mM added NaCl, 25 °C; fitted with PyTC. In general terms: Isothermal titration calorimetry measures the heat released or taken up as one component is titrated into another.
Assay [2] has the same target. In words: ITC; LF (0.25 mM, syringe) injected into βLG (0.1 mM, cell); 10 mM MES pH 5.5, 15 mM added NaCl, 25 °C; fitted with PyTC.
Assay [3] has the same target. The experiment in a line: co-sedimentation + other: turbidity; LF-βLG mixtures (total 0.55 mM) prepared at 0, 100, 200 or 400 mM NaCl and desalted by dialysis (24 h) against 10 mM MES pH 5.5, room temperature; coacervate yield after centrifugation at 28,000 g and HPLC of the supernatant.
Assay [4] shares this target. In words: ITC; LF (0.25 mM, syringe) injected into βLG (0.1 mM, cell); 10 mM MES pH 5.5, 5 mM added NaCl, 25 °C; fitted with PyTC.
Assay [5] shares this target. The experiment in a line: ITC; LF (0.25 mM, syringe) injected into βLG (0.1 mM, cell); 10 mM MES pH 5.5, 20 mM added NaCl, 25 °C; fitted with PyTC.
For assay [6] the target is unchanged. The experiment in a line: ITC; LF (0.25 mM, syringe) injected into βLG (0.1 mM, cell); 10 mM MES pH 5.5, no added NaCl, 25 °C; fitted with PyTC.

Our source for the Ka, dH and coacervate yield values is publication PMC10001252.

For lactoferrin (natural protein), the Ka in the assay with β-lactoglobulin (bovine) [1] stood at 972000 M⁻¹; in the assay with β-lactoglobulin (bovine) [2] it was 84700 M⁻¹; with β-lactoglobulin (bovine) [4] it was 275000 M⁻¹; with β-lactoglobulin (bovine) [5] it was 33200 M⁻¹; with β-lactoglobulin (bovine) [6], 421000 M⁻¹. The dH with β-lactoglobulin (bovine) [1] was -24.7 kcal/mol; with β-lactoglobulin (bovine) [2], -12.1 kcal/mol; with β-lactoglobulin (bovine) [4] it was -14.6 kcal/mol; in the assay with β-lactoglobulin (bovine) [5], -8.94 kcal/mol; with β-lactoglobulin (bovine) [6], -18.8 kcal/mol. In addition, in the assay with β-lactoglobulin (bovine) [3], the coacervate yield was 55 to 65%.
